Assay results taken from US6774106 (Amgen, dated 2004).

Columns and labels:
[1] = target: T1, mouse BCMA expressed on 293 cells (sense pmBCMA vector) (mouse, UniProt O88472 1-185); assay: FACS on transfected 293 cells, G70/APRIL-Flag then FITC anti-Flag antibody
T1 construct: also called exogenous BCMA; BCMA gene
T1 sequence: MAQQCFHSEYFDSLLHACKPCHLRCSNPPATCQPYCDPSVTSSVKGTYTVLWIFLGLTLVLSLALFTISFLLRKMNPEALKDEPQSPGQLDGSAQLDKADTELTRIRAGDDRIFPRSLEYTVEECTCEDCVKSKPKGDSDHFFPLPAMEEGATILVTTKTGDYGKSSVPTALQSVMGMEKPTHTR
Experimental: (§1) FIGS. 14A, 14B and 14C show soluble mouse G70/APRIL binding to 293 cells expressing the BCMA gene. Human 293 cells transfected with the pmBCMA and pcDNA3 vectors were incubated with G70/APRIL-Flag, followed by FITC-conjugated anti-Flag antibody staining for FACS analysis. A. 293 cells transfected with pcDNA3 vector only. B. 293 cells transfected with antisense pmBCMA vector. C. 293 cells transfected with sense pmBCMA vector.
(§2) Human 293 cells transfected with the phTACI and pcDNA3 vectors were incubated with G70/APRIL-Flag, followed by FITC-conjugated anti-Flag antibody staining for FACS analysis.

[2] = target: T2, human TACI expressed on 293 cells (phTACI vector) (human, UniProt O14836 1-293); assay: as above
T2 construct: also called hTACI gene
T2 sequence: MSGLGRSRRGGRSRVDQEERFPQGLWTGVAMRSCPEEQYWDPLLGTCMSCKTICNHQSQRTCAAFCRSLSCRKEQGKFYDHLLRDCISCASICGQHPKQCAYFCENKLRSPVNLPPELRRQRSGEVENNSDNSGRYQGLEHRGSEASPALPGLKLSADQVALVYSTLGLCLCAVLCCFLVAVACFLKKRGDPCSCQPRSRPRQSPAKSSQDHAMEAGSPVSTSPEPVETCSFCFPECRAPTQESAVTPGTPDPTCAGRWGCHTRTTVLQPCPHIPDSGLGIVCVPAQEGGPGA
Experimental: as §1, §2

binding result [1]: binds
binding result [2]: binds
B1: Soluble murine APRIL-Flag protein (FLAG-tagged soluble mouse APRIL) (ligand)
chain: MDYKDDDDKKHKKKHSVLHLVPVNITSKDSDVTEVMWQPVLRRGRGLEAQGDIVRVWDTGIYLLYSQVLFHDVTFTMGQVVSREGQGRRETLFRCIRSMPSDPDRAYNSCYSAGVFHLHQGDIITVKIPRANAKLSLSPHGTFLGFVKL
notes: also called Flag-APRIL; Flag-mAPRIL
